Source: US4885277A, “Anticoagulant therapy” (Oklahoma Medical Research Foundation, priority 1987, dated 1989)

System: endothelial cellular receptors for Factor IX (cultured bovine aortic endothelial cells)
Assay: Competitive binding of [125I]-Factor IX to cultured bovine aortic endothelial cells
Settings: cultured bovine aortic endothelial cells, 4-5 hours at 4° C.; mean, SEM less than 20%; read-out: Inhibitory Constant, inhibition of binding of [125I]-Factor IX
Experimental: The purified peptides were tested for their ability to block the binding of bovine Factor IX and IXa to cultured bovine aortic endothelial cells. Bovine Factor IX and IXa for these studies were prepared and radioiodinated (using Na^125 I and the solid state lactoperoxidase technique) using methods described by Stern, et al. (J. Biol. Chem. 260, pp. 6717-6722 [1985]). Bovine aortic endothelial cells were obtained from the aortae of newborn calves as described by Stern, et al. (Proc. Natl. Acad. Sci. U.S.A., 80, pp. 4119-4123 [1983]). These endothelial cells were grown to confluence (1.3×10^5 cells/cm^2) in culture dishes. Binding assays were carried out by incubating either ^125 I-Factor IX or ^125 I-Factor IXa with endothelial cell monolayers in the presence of varying concentrations of one of the peptides. The buffer used in these experiments was Minimal Essential Medium containing 0.5 mg/ml transferring, and the incubation time was 4-5 hours at 4° C. At the end of the incubation period, the cultures were washed to remove unbound material. Then, specifically bound [^125 I]-Factor IX or [^125 I]-Factor IXa was eluted during exposure to EDTA-containing buffer as described by Stern, et al. (Proc. Natl. Acad. Sci. U.S.A., 80, pp. 4119-4123 [1983].

B1: Factor IX: bovine Factor IX, Vitamin K-dependent plasma glycoprotein, used as competitor (protein, UniProt P00741 26-462, looked up)
Coagulation factor IX: AECTVFLDRENATKILHRPKRYNSGKLEEFVRGNLERECKEEKCSFEEAREVFENTEKTTEFWKQYVDGDQCESNPCLNGGMCKDDINSYECWCQAGFEGTNCELDATCSIKNGRCKQFCKRDTDNKVVCSCTDGYRLAEDQKSCEPAVPFPCGRVSVSHISKKLTRAETIFSNTNYENSSEAEIIWDNVTQSNQSFDEFSRVVGGEDAERGQFPWQVLLHGEIAAFCGGSIVNEKWVVTAAHCIKPGVKITVVAGEHNTEKPEPTEQKRNVIRAIPYHSYNASINKYSHDIALLELDEPLELNSYVTPICIADRDYTNIFLKFGYGYVSGWGKVFNRGRSASILQYLKVPLVDRATCLRSTKFSIYSHMFCAGYHEGGKDSCQGDSGGPHVTEVEGTSFLTGIISWGEECAMKGKYGIYTKVSRYVNWIKEKTKLT
  Ki: 3 nM
